Source: the nanobody polyreactivity screen of Harvey et al. (2022)

Assay: yeast display, Sf9 membrane polyspecificity reagent, FACS + sequencing; frameworks hold sequencing errors
In short: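 Using colony PCR, genes from sorted yeast display clones were amplified, then sequenced on MiSeq at 2 × 250 and filtered by CDR length. The clones had been stained with 10% biotinylated, detergent-solubilized Sf9 membrane reagent for 1 hour at 4 °C and sorted by FACS into low and high (top ~1%) gates on anti-HA and streptavidin fluorescence. Polyreactivity labels come from the gate of origin.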

Sequence	polyreactivity (PSR sort gate)
QVQRVESGVGLVQAGGSLRLRCAASGSIFQSYAMGWYRHAPGKERELVAAITERGGSTYYADSVKGRFTISRDNAKNTVYLQMNSLKPEDTAVYYCAAKAVGLGKSWRGDDYWGQRTQVTVSS	low polyreactivity
QVQRVESRGGLVQAGGSLRLSCAASGSTFAVYALGWYRQAPGKERELVAAISQSGGSTNYADSVKGRFTISRDNAKNTVYLQMNSLKPEDTAVYYCNVDVSRSWAQPYTYDYWGQGTQVTVSS	low polyreactivity
QVQRVESWGGLVQAGGSLRLSCAASGFTFSDNAMGWYRQAPGKERELVAAISRRGGSTYYADSVKGRFTISRDNAKNTVYLQMNSLKPEVTAVYYCAAVRASSKVHTRTYDYWGQGTQVTVSS	high polyreactivity
QVQRVETGGGLVQAGGSLRLSSAASGSTLPGNTMGWYRQAPGKERELVAAISKSGGTTYYADSVKGRFTISRDNAKNTVYLQMNCLKPEDTAVYYCAAKPWVWVYARYGKHPSYDYWGQGTQVTVSS	high polyreactivity
QVQRVETGGVLVQAGGSLRLSCAASGRIFINDMGWYRQAHGKEMELVAAIRSDGSTNYADSVKGRFTFSRDTAKNTVYLQMNSLKPEDTAVYYCNVDGYYLFVRGYEYWGQGTQVTVSS	low polyreactivity
QVQVVESGGGIVQAGGSHRLSCAAYGSIFLPYAMGWYRQAPGKDRELVAAITRGGDSTYADSVKGRFTISRDNAMYTVDLQMNSLKRDDTAVFYCAAGAGFESDYWGQGTQVTVAS	low polyreactivity
QVQVVESGGGLVQAGGRLRLSCAASGRIFYWYAMGWSRQAPGKERELVADINHGDTSTYYADSVKGRFTISRDKAKNTVYLQMNSLKPEDTAVYYCNVRSYVYSRWYQSTWGYYYWGQGTQVTVSS	high polyreactivity
QVQVVESGGGLVQAGGSLLLICAASGRTFWPNAMGWYRAAPGKERELVAAINWGGGSTYYADSVKVRFTISRDNAKNAVYLQKNSLKPEDTAVYYCAKSLVPWWYKVEYDYWGQGTQVTVSS	low polyreactivity
QVQVVESGGGLVQAGGSLLLSCAASGSTFEYNAMGWYRQAPGKERELVASSTNYADSVKGRFTISRDNAKNTVYLQMNSLKPEDTAVYYCARELGVNRKHDYWGQGTQVTVSS	low polyreactivity
QVQVVESGGGLVQAGGSLRLSCAASGFIFFTYAKGWYRPAPGKERELVADISSRGGSTYYADSVKGRFTISRDNAKNTVYLQMNSLKPEDTAVYYCARTRFWLRYRLFDYWGQGTQVTVSS	low polyreactivity
QVQVVESGGGLVQAGGSLRLSCAASGFIFLRYDMGWYRQAPGKERELVAAINGNGGSTYYADSVKGRFTISRDNAKNTFYLQMNSLKPEDTAVYYCNARRRTYARNYGYWGHGTQVTVSS	high polyreactivity
QVQVVESGGGLVQAGGSLRLSCAASGRIFSHNAMGWYRQAPGNEWELVAGISSGGGTTYADSVKGRFTLSRDNAKNTVYLQMNSLKPEDTAVYYCNKQDQPVGRSGYPYGYDYWGQGTQVTVSS	low polyreactivity
QVQVVESGGGLVQAGGSLRLSCAASGRTFDWYLMGWYRQAPGKERELVASIRGTGSTYYADSVKGRFTISRDNAKNTVYLQMNSLKAEDTAVYYCAARPGFLYSKYNYWGQGTQVTVSS	high polyreactivity
QVQVVESGGGLVQAGGSLRLSCAASGRTYRSNAMGWYRQAPGKERELVAAIRTSGGSTYYADSVKGRFTISRDNAKNTVYLQMNSLKPEDTAVYYCNAELRDLEFDYWGQGTQVTVSS	low polyreactivity
QVQVVESGGGLVQAGGSLRLSCAASGSICHVNAMGWYRQAPGKERELVADISKRGASTYYADSVKGRFTISRDNAKNTVYLQMNSLKPEDTAVYYCAARVVTPRRQWYTYDYWGQGTQVSVSS	high polyreactivity
QVQVVESGGGLVQAGGSLRLSCAASGSIFATYAMGWYRQAPGKERELVAAITSSDGSTNYADSVKGRFTISRDNAKNTVYLQMNSLKPEDTAVYYCATDAPDRTDSDSGFDAGYDYWGQGTQVTLSS	low polyreactivity
QVQVVESGGGLVQAGGSLRLSCAASGSISSWYALGWYRPAAGYERELVADISSGVNTYYADSVKGRFTISRDNAKNTVYLQMNSLKTEDTAVYYCNAESLTFADPFYNYTYDYWGQGTQVTVSS	low polyreactivity
QVQVVESGGGLVQAGGSLRLSCAASGSTFKNYAMGWYRQAPGKERELVAAIHGRGGSTYYADSVKGRFTISRDNAKNTVYLQMNSLKPEDTAVYYCAASRVHSYNPGYPRYYYWGQGTQVNVSS	high polyreactivity
QVQVVESGGGLVQAGGSLRLSCAAYGRTISAYAMGWYRQAPVKERELVARITRYGGPTYYADSVKGRFTISRDYAKYTDYLQMNSLKAEVTAVDYCAARKYHLRTAYVYWGQGTEVTVSS	low polyreactivity
QVQVVESGGGLVQAGGSLRLSCAGSGSIFRVYAMGWYRQAPGKVREWVASISRRGGSTYYADSVKGRFTISRDNAKNTVYLQMNSLKPEDTAVDYCAAEFVIGGHGYDYWGQGTQVTVSS	high polyreactivity
QVQVVESGGGLVQAGGSLRLSCGASGSTFQGNAMGWYRPAPGKDRALDAAISRSGGSTYADSVKGRFTISRDNAKNTVYLQMNSLKPADTAVYYCAADALYWIGRMDYWGQGTQVTVSS	low polyreactivity
QVQVVESGGGLVQAVGSLRLSCAASGSTLSDNAMGWYRQAPGKERELFAAISESGGSTYYADSVKGRFTISRDNAKNTVYLQMNSQKPEDTAVSYCNAVYLSGPFHVSHDYWGQGTQVTVSA	low polyreactivity

Sequence	polyreactivity (PSR sort gate)
QVQVVESGGGLVQEVGSLRLSCDASGRSFHHNVMGWYRQAPGKERELVAAISQSGCSTYYADSVKGRFTISRDNAKNTLYLLINSLKPEDSAVYYCNAGAAGRRYNYWGQGTQVTVSS	low polyreactivity
QVQVVESGGGLVQPGGSLRLSCAASGFIFFRYDMGWYRQAPGKERELVAAITDDGSTYADSVKGRFTISRDNAKNNVYLQMNSLKPEDTAVYYCNVQSKSSYWWYGYDYWGQGTQVTVSS	low polyreactivity
QVRHVESGGGLVQAGGSLRLSCAASGGIFTTYAVGWYREAPGKEWELVARINSRGGRTYYADSVKGRFTISRDNAKYTVYLQMISLKPEDTGVYYCAVRNPRYFNEYDYWGQGTQVTVSS	low polyreactivity
QVRLIESGGGLVQAGGSLRLSCAASGFTFFGNAMGWYRQAPGKERELVASISGSGTRTYYADSVKGRFTISRDNAKNTVYLQMNSLKPEDTAVYYCAARGSYSHGINYYWGQGTQVTVSS	high polyreactivity
QVRLVESGGCLVQAGGSLRLSCAASGSTFRRYAMGWYRQAPGKERELVAAITVGGGSTYYADSVKGRFTISRDNAKNTVYLQMNSLKPEDTAVYDCSVSRYPYFRYDYWGQGTQVTVSS	high polyreactivity
QVRLVESGGGLVQAGGSLRLSCAASGFIFRNNAMGWYRQAPGKERELVAVISFSGGSTYYADSVKGRFTISRDNAKNTVSLQMNSLKPEDTAVYYCTAKGWYYTRRSDYWGQGTQVTVSS	low polyreactivity
QVRLVESGGGLVQAGGSLRLSCAASGRIFVGYGLGWYRQAHGKERELVAAITSSGGSTYYADSVKGRFTISRDNAKNTVYLQMNSLKPEDTAVYYCAAERGYHGGVSGLYDYWGQGTQVTVSS	low polyreactivity
QVRLVESGGGLVQAGGSLRLSCAASGRILQVYAMGWYRQAPGKERELVAGIRSSGGRTYYADSVKGRFTISRDNAKNTVSLQMNSLKPEDTAVYYCAADQDWYGFVIGFDYWGQGTQVTVSS	low polyreactivity
QVRLVESGGGLVQAGGSLRLSCAASGSIFSPYAMGWYRQAPGKERELVAALSYGVGNTYYADSVKGRFTISRDNAKNTVYLQMNSLKPEDTAVYYCAAEEYDYVYPHYFTKGYYWGQGTQVTVSS	high polyreactivity
QVRLVESGGGLVQAGGSLRLSCAAYGSTFKTYAMGWYRPAPGKERELVAAISAGGGSTYYADSVKGRFTISRDNAKNTVYLQMNSLKPEDTAVYYCAAAYIYAGWDYEYWGQGTQVTVSS	low polyreactivity
QVRLVESGGGLVQAGGSLRLSCADSGSTLDINAMGWYTQAPGKERELVASISWTGGHTYYADSVKGRFTISRDNAKNTVYLQMNSLKPEDTAVYYCAATHQETVYYFLSIFDDWGQGTQVTLSS	low polyreactivity
QVRLVESGGGLVQEGGSLRLSCAASGSTFGDYPMGWYRQAPGKERELVAAITLTGGSTYYADSVKGRFTISRDNAKNTVYLQMNSLKPEDTAVYYCNTDVIRWVGGTWHRYYYWGQGTQVTVSS	low polyreactivity
QYQLVESGRGLVQAGGSLRLSCAASGSTFRSYAMGWYRQAPGKERDLVAAITSSGGRTYYADSVKGRFTISRDNAKNTVYLQMNSLKPEDTAVYYCAARTYSWGDWGQGTQVTVSS	high polyreactivity
RVQHVESGGGLVQAGGSLRLSCAASGYTFEAYAMGWYRPAPGKERELVAAINYSGGSTYADSVKGRFTISRDNAKNNVYLQMHSLKPEDTAVYYCATRLYGYWTYGFDYWGQGTQVTVSS	low polyreactivity
RVQLQESGGGLVQAGGSLRLSCAASGTIFIRGDMGWYRQAPGKEREFVATIETGSNTYYADSEKGRFTISRDNAKNAVYLEMNCLKPGDTAVYYCVVDYQLSGRLRYWGQGTQVTLSS	low polyreactivity
RVQLQESGGGLVQAGGSLRLSCAASGTIFNRGDMGWYRQAPGKEREFVATIDTGSNTYYADSEKGPFTISRDNAKNAVYLQMNCLKPGATAVYYCVVDYQLSGRLRYWGQGTQVTLSS	low polyreactivity
RVQLVESGGGLFHAGGSLRLSCAASGRTFPTYDMGWYRQAPGKERELVAAINWSGGSTYYADSVKGRFTISRDNAKNTVYLQINSLKPEDTAVYYCNAELLRPSTLGVYLARNYWGQGSQVTVSS	low polyreactivity
RVQLVESGGGLVHAGCSLRLSCAASGNTFWYNAMGWYRQAPGKVRELVAAISYSGGGTYYADSVKGRFTISRDNAKNTVYLQMNSLKPEDTAVYYCAADTLQRSFVLYDYWGHGTQVTVSS	high polyreactivity
RVQLVESGGGLVKAGGSLRLSCAASGSIFYQYTMGWYRQAPGKERELVATISWSDVSTYYADSVKGRFTISRDNAKNTVYLQMNSLKPEDTAVYYCAALYWGWDRYYGYDYWGQGTQVTVSS	low polyreactivity
RVQLVESGGGLVQAGGILRLSSAASGSTFPANAMGWYRQAPGKERELVAAITWRAASTYYADSVKGRFTISRDNAKNTVYLQMNSLKPEDTAVYYCARVTNSSAKNTDDYWGQGTQVTVSS	low polyreactivity
RVQLVESGGGLVQAGGSLRLSCAASGRIFKYYAMGWYRPAPGTERELVASITIGSTTYADSVKGRFTISRDNAMNTVYLHMNSLKPEDTAVYYCNRVYRQRLGRDYWGQGTQVTVSS	high polyreactivity
